B1: THAP1; numbered along this chain (parent)
chain: MVQSCSAYGCKNRYDKDKPVSFHKFPLTRPSLCKEWEAAVRRKNFKPTKYSSICSEHFTPDCFKRECNNKLLKENAVPTIFLCTEPHDKKEDLLEPQEQLPPPPLPPPVSQVDAAIGLLMPPLQTPVNLSVFCDHNYTVEDTMHQRKRIHQLEQQVEKLRKKLKTAQQRCRRQERQLEKLKEVVHFQKEKDDVSERGYVILPNDYFEIVEVPA

Variants of: B1
Test: THAP1 transcriptional activity (GFP+/GFP- enrichment relative to wild-type constructs) (ratio to WT); higher = more THAP1 activity (PSMB5 reporter activation)
Conditions: with PSMB5 promoter-GFP reporter
Experimental: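 Deep mutational scan of human THAP1. Site-saturation single amino acid variant library (residues 2-213) was expressed by lentivirus at MOI ~0.3 in THAP1-knockout HEK-293T cells carrying an endogenous PSMB5 promoter-GFP knock-in reporter. Five days post-transduction, BFP+ cells were FACS-sorted into GFP dim and GFP bright populations and variants were counted by Illumina sequencing. Activity is the GFP-bright/GFP-dim read fold change, mean of 2 replicates, divided by the mean fold change of wild-type (synonymous) constructs in the same screen pool; WT = 1.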

Compared with S110L, S110V is higher in THAP1 transcriptional activity: 0.361 for the first, 0.459 for the second.

First: Q187I
Second: E74G
The THAP1 transcriptional activity of the first is higher: 0.687 for the first, 0.501 for the second.

First: E74Y
Second: R146A
The THAP1 transcriptional activity of the first is lower: 0.453 for the first, 0.79 for the second.

Compared with R146M, H150C is higher in THAP1 transcriptional activity: 0.595 for the first, 0.635 for the second.

First: E140K
Second: Q111M
The THAP1 transcriptional activity of the first is higher: 4.18 for the first, 0.329 for the second.

Going from M143A to A7Y, the THAP1 transcriptional activity falls from 0.634 to 0.218.

Compared with R169Y, R169F is higher in THAP1 transcriptional activity: 0.183 for the first, 0.246 for the second.

Going from L177Y to L177N, the THAP1 transcriptional activity falls from 0.528 to 0.361.

Going from V127E to L129E, the THAP1 transcriptional activity falls from 0.897 to 0.516.

Compared with L129T, L129V is lower in THAP1 transcriptional activity: 1.05 for the first, 0.92 for the second.

First: L129G
Second: P212V
The THAP1 transcriptional activity of the first is lower: 0.706 for the first, 1.99 for the second.

First: P212H
Second: K179Q
The THAP1 transcriptional activity of the first is higher: 2.31 for the first, 0.656 for the second.

Going from T59C to T59H, the THAP1 transcriptional activity rises from 0.138 to 0.511.

Going from V184P to V184E, the THAP1 transcriptional activity rises from 0.617 to 0.657.

Compared with V209L, S31G is higher in THAP1 transcriptional activity: 0.773 for the first, 1.17 for the second.

Going from I80W to I80C, the THAP1 transcriptional activity falls from 0.268 to 0.239.

Compared with I80S, I80T is higher in THAP1 transcriptional activity: 0.272 for the first, 0.298 for the second.

First: D134H
Second: L82D
The THAP1 transcriptional activity of the first is lower: 0.203 for the first, 1.34 for the second.

Compared with L123N, L123F is lower in THAP1 transcriptional activity: 1.54 for the first, 0.608 for the second.

Going from C170H to C170N, the THAP1 transcriptional activity rises from 0.411 to 0.728.

Going from P60L to E157A, the THAP1 transcriptional activity rises from 0.35 to 1.14.

Compared with E157L, Q176K is higher in THAP1 transcriptional activity: 0.434 for the first, 1.54 for the second.

Going from Q176W to K11C, the THAP1 transcriptional activity rises from 0.223 to 0.369.

First: K11Q
Second: R148G
The THAP1 transcriptional activity of the first is higher: 0.354 for the first, 0.324 for the second.

Going from E195G to E195T, the THAP1 transcriptional activity falls from 1.07 to 0.674.

First: E195M
Second: E195C
The THAP1 transcriptional activity of the first is lower: 0.781 for the first, 0.903 for the second.

Going from E189Q to H185K, the THAP1 transcriptional activity rises from 1.11 to 1.87.

Compared with Y198P, G117S is lower in THAP1 transcriptional activity: 0.891 for the first, 0.877 for the second.

Compared with G117I, G117E is higher in THAP1 transcriptional activity: 0.169 for the first, 1.6 for the second.

Going from T48F to T48R, the THAP1 transcriptional activity rises from 0.109 to 0.132.

Going from A115Y to A115W, the THAP1 transcriptional activity falls from 0.256 to 0.164.

Going from A115H to A115D, the THAP1 transcriptional activity rises from 0.76 to 1.12.

Going from K190E to K190R, the THAP1 transcriptional activity rises from 0.903 to 0.923.

Going from K190L to K190W, the THAP1 transcriptional activity falls from 0.835 to 0.724.

Going from K190T to S4A, the THAP1 transcriptional activity falls from 1.35 to 0.338.

First: L32E
Second: D191C
The THAP1 transcriptional activity of the first is lower: 0.135 for the first, 0.786 for the second.

First: D191P
Second: D191E
The THAP1 transcriptional activity of the first is lower: 1.02 for the first, 1.36 for the second.

Compared with K73H, K73A is lower in THAP1 transcriptional activity: 0.598 for the first, 0.31 for the second.

Compared with P101Y, P101V is lower in THAP1 transcriptional activity: 1.08 for the first, 0.772 for the second.

Compared with P101G, P101N is higher in THAP1 transcriptional activity: 1.27 for the first, 3.11 for the second.

Compared with P101H, P101S is higher in THAP1 transcriptional activity: 0.968 for the first, 1.96 for the second.

Compared with P101T, P19F is lower in THAP1 transcriptional activity: 1.5 for the first, 0.276 for the second.

First: P19N
Second: P19R
The THAP1 transcriptional activity of the first is higher: 0.682 for the first, 0.675 for the second.

Going from K147H to K147F, the THAP1 transcriptional activity falls from 0.438 to 0.361.

Compared with G197A, G197Q is higher in THAP1 transcriptional activity: 1.19 for the first, 1.29 for the second.

First: G197T
Second: G197M
The THAP1 transcriptional activity of the first is higher: 1.41 for the first, 1.03 for the second.

Compared with L93M, L93Q is higher in THAP1 transcriptional activity: 0.701 for the first, 1.67 for the second.

Compared with C5H, E98V is higher in THAP1 transcriptional activity: 0.127 for the first, 1.56 for the second.

Going from V112G to V112H, the THAP1 transcriptional activity falls from 1.11 to 0.743.

First: V112I
Second: D204Q
The THAP1 transcriptional activity of the first is lower: 0.587 for the first, 0.749 for the second.

Compared with D204T, D61K is lower in THAP1 transcriptional activity: 1.04 for the first, 0.217 for the second.

Compared with D61L, F63C is lower in THAP1 transcriptional activity: 0.209 for the first, 0.139 for the second.

Compared with F63T, F63I is higher in THAP1 transcriptional activity: 0.128 for the first, 0.134 for the second.

Going from Y137E to D141S, the THAP1 transcriptional activity rises from 0.152 to 0.634.

Compared with D141V, D141N is higher in THAP1 transcriptional activity: 0.352 for the first, 0.776 for the second.

First: D141M
Second: L118P
The THAP1 transcriptional activity of the first is lower: 0.395 for the first, 1.1 for the second.

Going from L118S to L118F, the THAP1 transcriptional activity rises from 0.509 to 1.09.

Going from H135W to H135R, the THAP1 transcriptional activity falls from 0.177 to 0.0891.

Going from L152P to L152V, the THAP1 transcriptional activity rises from 0.177 to 0.213.

Going from L152C to L152K, the THAP1 transcriptional activity falls from 0.209 to 0.189.

Compared with L152S, L152H is higher in THAP1 transcriptional activity: 0.211 for the first, 0.215 for the second.

Going from K161R to K161V, the THAP1 transcriptional activity falls from 0.649 to 0.461.

Compared with K161H, K16Y is lower in THAP1 transcriptional activity: 0.451 for the first, 0.158 for the second.

First: K16V
Second: A166R
The THAP1 transcriptional activity of the first is lower: 0.255 for the first, 0.328 for the second.

Compared with Q124H, Q124R is higher in THAP1 transcriptional activity: 0.399 for the first, 0.787 for the second.

Compared with D92N, D92K is lower in THAP1 transcriptional activity: 1.64 for the first, 1.22 for the second.

Compared with E91Q, K162T is lower in THAP1 transcriptional activity: 1.02 for the first, 0.273 for the second.

Compared with K162I, F206P is higher in THAP1 transcriptional activity: 0.164 for the first, 0.832 for the second.

Compared with F206C, S6I is lower in THAP1 transcriptional activity: 1.5 for the first, 0.183 for the second.

First: S6W
Second: C54S
The THAP1 transcriptional activity of the first is higher: 0.163 for the first, 0.154 for the second.

Compared with L119K, L119F is lower in THAP1 transcriptional activity: 1.25 for the first, 0.425 for the second.

First: L119A
Second: Q155N
The THAP1 transcriptional activity of the first is higher: 0.912 for the first, 0.447 for the second.

Compared with A76N, A76Q is higher in THAP1 transcriptional activity: 0.121 for the first, 0.234 for the second.

Going from A76W to N68W, the THAP1 transcriptional activity falls from 0.386 to 0.089.

Going from N68Y to E182S, the THAP1 transcriptional activity rises from 0.125 to 0.933.

Compared with E182T, Y50D is lower in THAP1 transcriptional activity: 0.811 for the first, 0.129 for the second.

Going from V211P to V211T, the THAP1 transcriptional activity rises from 0.462 to 0.876.

Going from V211S to E56S, the THAP1 transcriptional activity falls from 1.03 to 0.473.

Going from L201K to L201V, the THAP1 transcriptional activity falls from 0.887 to 0.62.

Going from K46E to K46C, the THAP1 transcriptional activity rises from 0.212 to 0.377.

First: L163Q
Second: L163W
The THAP1 transcriptional activity of the first is lower: 0.17 for the first, 0.188 for the second.

Going from L163D to K90N, the THAP1 transcriptional activity rises from 0.0892 to 1.49.

First: K90S
Second: L71P
The THAP1 transcriptional activity of the first is higher: 1.77 for the first, 0.113 for the second.

For K24I, the THAP1 transcriptional activity was 0.0809.

Source: the supplement of paper PMC11811203
